T1: hSEMA4D ECD-His (His-tagged human SEMA4D protein extracellular domain, Met22-Arg734) (human, UniProt Q92854 22-734)
T1 construct: Expressed in CHO-S cells, purified on Ni column; also called protein immunogen; immunogen A; not shown: His tag of the pCP vector
T1 sequence: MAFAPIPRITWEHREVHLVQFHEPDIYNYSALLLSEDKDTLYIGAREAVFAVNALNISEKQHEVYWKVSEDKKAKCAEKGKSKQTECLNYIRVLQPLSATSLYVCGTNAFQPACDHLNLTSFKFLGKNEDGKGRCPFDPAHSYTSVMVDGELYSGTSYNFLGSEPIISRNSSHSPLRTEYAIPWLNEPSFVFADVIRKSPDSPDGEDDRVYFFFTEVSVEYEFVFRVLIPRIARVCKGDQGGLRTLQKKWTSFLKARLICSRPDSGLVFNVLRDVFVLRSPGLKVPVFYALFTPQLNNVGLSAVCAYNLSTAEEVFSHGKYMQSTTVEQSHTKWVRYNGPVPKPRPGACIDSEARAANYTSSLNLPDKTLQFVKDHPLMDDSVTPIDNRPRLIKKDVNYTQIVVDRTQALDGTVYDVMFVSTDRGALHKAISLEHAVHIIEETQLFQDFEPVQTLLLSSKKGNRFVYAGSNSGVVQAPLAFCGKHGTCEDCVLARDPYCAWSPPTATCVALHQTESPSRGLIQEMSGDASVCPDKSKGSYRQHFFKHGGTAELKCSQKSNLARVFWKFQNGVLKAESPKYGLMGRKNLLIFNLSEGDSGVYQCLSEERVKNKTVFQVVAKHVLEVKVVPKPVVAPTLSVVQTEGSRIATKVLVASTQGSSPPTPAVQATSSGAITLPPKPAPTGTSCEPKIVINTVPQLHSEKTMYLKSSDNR

T2: mouse SEMA4D, full length, on CHO-K1 cells (CHO-K1 mSEMA4D) (mouse, UniProt O09126 24-861)
T2 construct: whole, on cells; also called murine SEMA4D recombinant cells
T2 sequence (looked up): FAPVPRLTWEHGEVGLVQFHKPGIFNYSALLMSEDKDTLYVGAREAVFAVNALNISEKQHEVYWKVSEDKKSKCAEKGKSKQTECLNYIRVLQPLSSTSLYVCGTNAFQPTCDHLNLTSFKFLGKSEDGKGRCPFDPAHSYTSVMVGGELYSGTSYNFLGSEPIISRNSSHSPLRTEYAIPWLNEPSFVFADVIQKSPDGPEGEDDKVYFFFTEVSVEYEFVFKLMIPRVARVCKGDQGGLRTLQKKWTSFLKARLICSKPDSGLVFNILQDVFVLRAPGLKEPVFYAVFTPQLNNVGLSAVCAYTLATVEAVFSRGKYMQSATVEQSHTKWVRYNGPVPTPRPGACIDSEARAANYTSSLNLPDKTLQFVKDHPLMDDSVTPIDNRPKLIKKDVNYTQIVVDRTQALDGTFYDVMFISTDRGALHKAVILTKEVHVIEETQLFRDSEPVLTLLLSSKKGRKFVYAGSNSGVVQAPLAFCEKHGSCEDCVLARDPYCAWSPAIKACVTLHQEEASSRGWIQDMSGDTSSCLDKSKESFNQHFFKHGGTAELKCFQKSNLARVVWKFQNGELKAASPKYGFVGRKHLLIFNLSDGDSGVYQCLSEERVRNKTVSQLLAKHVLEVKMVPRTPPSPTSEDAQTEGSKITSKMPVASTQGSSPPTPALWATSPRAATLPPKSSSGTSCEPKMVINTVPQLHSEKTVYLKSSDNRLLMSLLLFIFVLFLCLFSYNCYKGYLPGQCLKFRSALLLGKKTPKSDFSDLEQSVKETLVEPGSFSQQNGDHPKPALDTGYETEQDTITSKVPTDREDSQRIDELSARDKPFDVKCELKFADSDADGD


What was measured:
[1] = target: T3, monkey SEMA4D, full length, on CHO-K1 cells (CHO-K1 cSEMA4D) (monkey); experiment: FACS, CHO-K1 cSEMA4D cells; Ab 2.67 nM
T3 construct: whole, on cells; also called monkey SEMA4D recombinant cells
Experimental: (§1) After the cells were counted, they were diluted with PBS to 2×10⁶ cells per milliliter. After washing, 100 μL of diluted and purified leading antibodies was added to each well and the plate was incubated for 1 hour on ice. […] Cells were washed 2 times by centrifugation with FACS buffer. The cells were suspended with 200 μL of FACS buffer, FACS (FACS Verse, purchased from BD) was used to detect and analyze the results.

[2] = target: T1, hSEMA4D ECD-His (His-tagged human …); experiment: ELISA, coated hSEMA4D ECD-His; Ab 0.0533 nM
Experimental: (§2) First, hSEMA4D ECD-His was diluted with PBS to a final concentration of 1.0 μg/mL, and then was added to a 96-well ELISA plate, 100 μL per well, sealed with plastic film and incubated overnight at 4° C. On the next day, the plate was washed with a plate washing solution, that is, PBS buffer containing 0.05% (v/v) Tween20, for 4 times, and added with blocking solution, that is, PBS buffer containing 0.05% (v/v) Tween20 and 2% (w/w) BSA, blocked at 37° C. for 1 hour. The blocking solution was poured out and the plate was washed 4 times with the plate washing solution. 100 μL of the purified leading antibodies obtained in Examples 1 and 2 was added to each well. After incubation at 37° C. for 1 hour, the plate was washed 4 times with a plate washing solution. 100 μL of horseradish peroxidase (HRP) labeled secondary antibody (purchased from Sigma) was added at a dilution of 1:10000 to each well, and the plate was incubated at 37° C. for 1 hour, and washed 4 times with a plate washing solution. 100 μL TMB substrate was added to each well, and the plate was incubated at room temperature for 5 minutes, and added with 100 μL stop solution (1.0N HCl) to each well. A microplate reader (SpectraMax M5e, purchased from Molecular Device) was used to read the A450 nm value. […] Wherein, the data in the table was the OD450 nm value.

[3] = target: T1, hSEMA4D ECD-His (His-tagged human …); experiment: ELISA, coated hSEMA4D ECD-His; Ab 0.267 nM
Experimental: as §2

[4] = target: T3, monkey SEMA4D, full length, on CHO-K1 …; experiment: FACS, CHO-K1 cSEMA4D cells; Ab 0.107 nM
Experimental: as §1

[5] = target: T2, mouse SEMA4D, full length, on CHO-K1 …; experiment: FACS, CHO-K1 mSEMA4D cells; Ab 0.534 nM
Experimental: as §1

[6] = target: T1, hSEMA4D ECD-His (His-tagged human …); experiment: ELISA, coated hSEMA4D ECD-His; Ab 1.33 nM
Experimental: as §2

Binder	MFI [1]	OD450 nm [2]	OD450 nm [3]	MFI [4]	MFI [5]	OD450 nm [6]
37C4F7 (antibody, V domains shown, Mouse monoclonal antibody purified from hybridoma supernatant on protein A) VH: EFQLQQSGPEVVKPGASVKISCKASGYSFTDYNMNWMKQSKGKSLEWIGVINPNYGTTTYNQNFKGKATLTVDQSSSTAYMQLNSLTSEDSAVYYCARDMYYVYAYYTMDYWGQGTSVTVSS VL: DVVMTQTPLSLPVSLGDQASISCRSSQSLVHSNGHTYLHWYLQRPGQSPTLLIYKVSNRFSGVPDRFSGSGSGTDFTLKISRVEAEDLGVYFCSQGTHVPWTFGGGTKLEIK	1940	0.162	0.41	237	29.2	0.91
38H2E3 (antibody, V domains shown, Mouse monoclonal antibody purified from hybridoma supernatant on protein A) VH: EFQLQQSGPEVVKPGASVKISCKASGYSFTDYNMNWMKQSKGKSLEWIGVISPDYGTTTYNQNFKDKATLTVDQSSSTAYMQLNSLTSEDSAVYYCAKDMYYVYAYYTMDYWGHGTSVTVSS VL: DVVMTQTPLSLPVSLGDQASISCRSSQSLVHSNGHTYLHWYLQRPGQSPTLLIYKVSNRFSGVPDRVSGSGSGTDFTLKISRVEAEDLGVYFCSQGTHVPRTFGGGTKLEIK	1750	0.194	0.531	210	29.5	1.1
42B7G2 (antibody, V domains shown, Mouse monoclonal antibody purified from hybridoma supernatant on protein A) VH: QVQLQQSGAELARPGASVKLSCKASGYTFTDYGISWVKQRTGQGLEWIGEIYLRNDNSYYNEKFKGKATLTADKSSNTAYMELRSLTSEDSAVYFCARWGDHGNNYEDAMDYWGQGTSVTVSS VL: DIVLTQSPASLAMSLGKRATISCRASESVSIIGSNLIHWYQQKPGQPPKLLIYHASNLETGVPARFSGSGSRTDFTLTIDPVEEDDVAIYYCLQSRKVPYTFGGGTKLEIK	2640	0.696	1.4	793	31.7	1.87
37F11F9 (antibody, V domains shown, Mouse monoclonal antibody purified from hybridoma supernatant on protein A) VH: EVQLQQSGPVLVKPGASVKMSCKASGYTFTDYYMNWVKQSHGKSLEWIGLINPYSGGSTFNQKFKAKATLTVDKSSSSAYMDLNSLTSEDSAVYYCARVGDGYYGVTHGMDYWGQGTSVTVSS VL: DIVMTPSQKFMSTTVGDRVSITCKASQNVGTAVAWYQQKPGQSPTILIYSASNRYTGVPDRFTGSGSGTDFTLTISNMKSEDLADYFCQQYYIYPFTFAAGTKLELK	2170	0.365	0.89	300	30.9	1.39
32C8F10 (antibody, V domains shown, Mouse monoclonal antibody purified from hybridoma supernatant on protein A) VH: EVQLQQSGAELVRPGASVKLSCTASGFNIKDEYIHWVKQRPEQGLEWIGWIDPANGHTEYASRFQAKATITADTSSNTAYLQLSSLTSEDTAVYYCTTGDYDGFAYWGQGTLVTVST VL: QIVLTQSPAIMSASPGEKVTISCSARSSVSYMYWYQQKPGSSPKPWIYRTSNLASGVPARFSGSGSGTSYSLTISSMEAEDAATYYCQHYHTYPYTFGGGTKLEIK	4920	0.551	1.28	1010	29.8	1.87
31G10C5 (antibody, V domains shown, Mouse monoclonal antibody purified from hybridoma supernatant on protein A) VH: EVQLQQSGAELVRPGASVKLSCTASGFNIKDDYIHWVKQRPEQGLEWIGWIDPANGHIEYASNFQAKATITADTSSNTAYLQLSSLTSEDTAVYYCTTGDYDGFTYWGQGTLVTVST VL: QIVLTQSPAIMSASPGEKVTISCSARSSVSYMYWYQQKPGSSPKPWIYRTSNLASGVPARFSGSGSGTSYSLTISSMEAEDAATYYCQHYHTYPYTFGGGTKLEIK	4540	0.526	1.15	1310	30.3	1.52
31C11G2 (antibody, V domains shown, Mouse monoclonal antibody purified from hybridoma supernatant on protein A) VH: EVQLQQSGAELVRPGASVKLSCTASGFNIKDEYIHWVKQRPEQGLEWIGWIDPANGHTEYASRFQAKATITADTSSNTAYLQLSSLTSEDTAVYYCTTGDYDGFVYWGQGTLVTVST VL: QIVLTQSPAIMSASPGEKVTIFCSARSSVSYMYWYQQKPGSSPKPWIYRTSNLASGVPARFSGSGSGTSYSLTISSMEAEDAATYYCQHYHTYPYTFGGGTKLEIK	4420	0.817	1.47	1210	30.7	1.67

Reference: patent US20220073608A1 (JIANGSU HUAIYU PHARMACEUTICAL, published 2022)
